Experimental data reported in patent US6569833B1, “Cyclin dependent kinase binding peptides” (Cyclacel Limited, priority 1995, dated 2003).

T1: peptide 6 with residue 94 substituted by alanine
T1 chain: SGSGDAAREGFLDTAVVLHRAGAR

T2: peptide 6 with aspartic acid 92 substituted by alanine
T2 chain: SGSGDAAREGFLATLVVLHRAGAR

T3: peptide 6 (amino acids 84 to 103 of p16), biotinylated via N-terminal SGSG linker
T3 chain: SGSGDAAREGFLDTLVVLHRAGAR


Assays:
cdk4-cyclin D [1] = biological target: T4, cdk4-cyclin D (Homo sapiens, UniProt P11802); test: pRb phosphorylation in vitro by Sf9 lysates containing cdk4 and cyclin D; format: biochemical; set-up: dose or concentration left out as unconfirmed; conditions: full length Rb protein
T4 construct: made in house; host or cells: Sf9 insect cells infected with baculovirus (separate crude lysates for cdk4 and cyclin D, mixed in the assay)
Description: Peptides were incubated at a concentration of […] in a buffer containing 50 mM Hepes pH 7.4, 10 mM MgCl2, 2.5 mM EGTA, 1 mM DTT, 10 mM β-glycerophosphate, 1 mM NaF and 1 mM Na3VO4 and […] of extract from Sf9 insect cells infected with human cdk4-expressing baculovirus lysed in 10 mM Hepes pH 7.4, 10 mM NaCl, 1 mM EDTA and 0.5 mM PMSF. The mixture was incubated for 60 minutes on ice. Human cyclin D containing Sf9 lysate ([…]) prepared as above was added together with 0.6 mg of purified recombinant full length Rb protein and 2.5 mM ^32P ATP in a final concentration of […] ATP and incubated for 10 minutes at +30° C., the reaction was terminated by addition of SDS loading buffer and loaded onto 8% SDS polyacrylamide gels. The gels were either exposed to autoradiographic film (FIG. 2A) or the levels of pRb phosphorylation were estimated by a Phosphoimager (FIG. 2B).

cdk4 [2] = biological target: T5, cdk4 (Homo sapiens, UniProt P11802); test: Peptide precipitation of in vitro translated 35S-labelled cdk4 from reticulocyte lysate; format: binding; conditions: biotinylated peptide on streptavidin agarose beads, densitometry
T5 construct: host or cells: coupled in vitro transcription/translation in rabbit reticulocyte lysate
Description: (§1) A 20 aa peptide library with a 5 aa overlap of p16 (apart from the first 8 N-terminal residues) was synthesised adding a SGSG linker to the N-terminus to which a biotin group was coupled. The alanine substitution series of peptide 6 was synthesised in the same way. The peptides were coupled to streptavidin immobilised on agarose beads and washed 4 times in PBS before incubating for 1 hour on ice with rabbit reticulocyte lysate (Promega) containing ^35S-methionine labelled cdk4 or cdk6. The beads were washes 4 times in 1.2×PBS with 0.2% Triton X-100 before addition of SDS loading buffer and applied to 12% SDS polyacrylamide gels. The gels were exposed to an autoradiography film and the bands corresponding to cdk4 and cdk6 were analysed by densitometry.
(§2) To study the binding of peptides to cdk4 and cdk6 we expressed the proteins in a coupled in vitro reticulocyte translation system in the presence of ^35S labelled methionine. A biotin group coupled to a Ser-Gly-Ser-Gly-linker at the N-terminus of the peptides was coupled to streptavidin coated agarose beads and incubated with the cell lysates.

cdk6 = biological target: T6, cdk6 (Homo sapiens, UniProt Q00534); test: Peptide precipitation of in vitro translated 35S-labelled cdk6 from reticulocyte lysate; format: binding; conditions: biotinylated peptide on streptavidin agarose beads, densitometry
T6 construct: host or cells: coupled in vitro transcription/translation in rabbit reticulocyte lysate
Description: as §1, §2

cdk4-cyclin D [3] = biological target: T4, cdk4-cyclin D; test: pRb phosphorylation in vitro by Sf9 lysates containing cdk4 and cyclin D; format: biochemical; conditions: for block of cdk4-cyclin D dependent pRb phosphorylation: 50 μM peptide, dilution series
cdk4 [4] = biological target: cdk4 (human, UniProt P11802 1-303); test: cell-based or functional assay
HaCaT cells = test: Cell cycle inhibition: S-phase entry of serum-starved cells by BrdU incorporation; format: cell-based, human; conditions: 10 μM peptide concentration
Description: Cells were synchronised in G0 by serum starvation for 72 hours before serum and 10 μM BrdU were added. […] The data presented show % inhibition of cells entering S-phase after incubation with peptide 6 coupled to Penetratin in relation to cells incubated with serum only.
A cysteine residue was added to the C-terminus of peptide 6 and used for coupling to the 16 amino acids long Penetratin peptide (amino acid sequence RQIKIWFQNRRMKWKK)(SEQ ID NO:3) of the Antennapedia homeodomain (24) (Appligen) by means of a disulzhide bond. Cells were seeded on cover slips prior to starvation for 72 hours in DMEM medium without FCS. The medium was substituted by DMM containing 10% FCS and BrdU. The coupled peptides were added at different time points after serum stimulation. The number of cells entering S-phase was determined by estimating the numbers of cells incorporating BrdU at 24 hours by fixing the cells on cover slips in acetone/methanol (1:1), incubating in 1M HCl for 30 minutes, washing 6 times in PBS and then incubating with anti-BrdU monoclonal antibody and Texas Red conjugated secondary antibody and mounted in Mowiol containing Hoescht. At least six different areas on three different cover slips were counted for each single experiment which was repeated at least two times. The values presented in FIG. 3A show one representative experiment.

[5] = biological target: peptide 10 of the p16 20 aa peptide library
[6] = biological target: T1, peptide 6 with residue 94 substituted …
[7] = biological target: T2, peptide 6 with aspartic acid 92 …
[8] = biological target: peptide 1 of the p16 20 aa peptide library
[9] = biological target: T3, peptide 6 (amino acids 84 to 103 of …)

T6 sequence (Q00534 whole entry): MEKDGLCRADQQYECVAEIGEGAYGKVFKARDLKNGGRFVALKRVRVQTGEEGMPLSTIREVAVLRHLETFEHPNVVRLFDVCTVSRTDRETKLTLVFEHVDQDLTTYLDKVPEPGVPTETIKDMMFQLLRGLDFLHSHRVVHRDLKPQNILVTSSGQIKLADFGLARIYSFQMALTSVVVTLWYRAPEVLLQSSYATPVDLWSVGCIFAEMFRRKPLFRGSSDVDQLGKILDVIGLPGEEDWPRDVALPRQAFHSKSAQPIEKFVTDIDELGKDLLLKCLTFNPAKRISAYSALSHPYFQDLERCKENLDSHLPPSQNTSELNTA

| Molecule | inhibition of pRb phosphorylation (cdk4-cyclin D [1]) | relative binding to in vitro expressed cdk4 (cdk4 [2]) | relative binding to in vitro expressed cdk6 (cdk6) | also measured |
| --- | --- | --- | --- | --- |
| AREGFLDTLVVLHRAGAR (SGSGAREGFLDTLVVLHRAGAR) [peptide 6 in FIGS. 5A-C, deletion series peptide, 2 residues removed at the N-terminus of the p16 84-103 peptide] | severely reduced | severely reduced | severely reduced | – |
| Ala92: peptide 6 in which aspartic acid 92 is substituted by alanine (SGSGDAAREGFLATLVVLHRAGAR) | even more efficiently than the wild type peptide 6 | more potent binding | more potent binding | block of cdk4-cyclin D dependent pRb phosphorylation (cdk4-cyclin D [3]; listed as Ala92 peptide): almost completely blocked; block of cdk4-cyclin D dependent pRb phosphorylation (cdk4-cyclin D [3]; listed as Ala-92): nearly complete |
| Ala94: peptide 6 with the single alanine substitution at residue 94 (SGSGDAAREGFLDTAVVLHRAGAR) | – | – | – | block of cdk4-cyclin D dependent pRb phosphorylation (cdk4-cyclin D [3]): completely inactivates the function of peptide 6 |
| DAAPEGFLDTLVVLHRAGAR [R87P, p16 84-103 peptide with the R87P substitution] | does not hamper the function of the peptide | – | – | – |
| DAARAGFLDTLQTLLEFQAD (SGSGDAARAGFLDTLQTLLEFQAD) [p18 peptide, peptide derived from p18 corresponding to the 84-103 region of p16] | inhibit pRb phosphorylation | binds | binds | – |
| DAAREGFLDTLVVLHGSGAR (SGSGDAAREGFLDTLVVLHGSGAR) [mouse p16 peptide, peptide derived from mouse p16 corresponding to the 84-103 region of p16] | inhibit pRb phosphorylation | binds | binds | – |
| EGFLDTLVVLHRAGAR [peptide 7, 16 aa peptide of the p16 deletion series] | able to exert a biological effect which is the same or analogous to that of full length p16 | – | – | – |
| FLDTLVVLHRAG [peptide 9, 12 aa peptide of the p16 deletion series] | able to exert a biological effect which is the same or analogous to that of full length p16 | – | – | – |
| FLDTLVVLHRAGAR [peptide 8, 14 aa peptide of the p16 deletion series] | able to exert a biological effect which is the same or analogous to that of full length p16 | – | – | – |
| His-tagged p16 protein with the VV.95,96AA mutations (from UniProt P42771 1-156) | – | – | – | 50% kinase inhibitory concentration, fold increase against wild type His-tagged p16 (cdk4 [4]): 5 fold |
| peptide 21: 36aa synthetic peptide (Penetratin sequence plus 20aa p16 peptide) that carries the VV.95,96AA mutation (RQIKIWFQNRRMKWKKDAAREGFLDTLAALHRAGAR) | – | – | – | block of S-phase entry (HaCaT cells): significantly less active in vivo; block of S-phase entry (HaCaT cells; listed as pep21): only marginal effect; inhibition of cdk-cyclin D kinase activity (cdk4-cyclin D [3]; 36aa Penetratin-linked peptides, increasing concentrations (FIG. 6A)): less active |
| RQIKIWFQNRRMKWKKDAAREGFLDTLAALHRAGAR [peptide 21 (36 aa synthetic peptide, Penetratin-p16 peptide carrying the VV.95,96AA mutation)] | – | – | – | 50% kinase inhibitory concentration, fold increase (cdk4 [4]): ~5 fold |
| cdk4 (protein) MATSRYEPVAEIGVGAYGTVYKARDPHSGHFVALKSVRVPNGGGGGGGLPISTVREVALLRRLEAFEHPNVVRLMDVCATSRTDREIKVTLVFEHVDQDLRTYLDKAPPPGLPAETIKDLMRQFLRGLDFLHANCIVHRDLKPENILVTSGGTVKLADFGLARIYSYQMALTPVVVTLWYRAPEVLLQSTYATPVDMWSVGCIFAEMFRRKPLFCGNSEADQLGKIFDLIGLPPEDDWPRDVSLPRGAFPPRGPRPVQSVVPEMEESGAQLLLEMLTFNPHKRISAFRALQHSYLHKDEGNPE | – | – | – | pRb phosphorylation [5]: do not affect pRb phosphorylation; pRb phosphorylation (dilution series) [6]: the single substitution Ala94 completely inactivates the function of peptide 6 in this assay; phosphorylation of the full length Rb protein by Sf9 lysates containing cdk4 and cyclin D [7]: inhibits phosphorylation of the full length Rb protein even more efficiently than the wild type peptide 6; pRb phosphorylation [8]: do not affect pRb phosphorylation; level of pRb phosphorylation by Sf9 lysates containing cdk4 and cyclin D [9]: significantly reduces the level of pRb phosphorylation |
